The values that follow come from patent US20240343781A1.

What is called EC50 is the concentration giving half of the maximal effect. Lower therefore signals an effect from little substance. One may read the Kd as the constant that tells how readily two partners part at equilibrium.

The target in experiment [1] is WIV1. Nature of the experiment: ELISA. (An ELISA detects its analyte on a solid surface through an enzyme-linked reagent.)
Experiment [2] has as its target Rs4081. In words: ELISA.
Experiment [3] addresses Yunnan2011. Nature of the experiment: ELISA.
For experiment [4], the target named is BtKY72. In words: ELISA.
The target in experiment [5] is RaTG13. Nature of the experiment: ELISA.
Experiment [6] has as its target Rf1. In words: ELISA.
The target of experiment [7] is RmYN02. In words: ELISA.
Experiment [8] concerns the target SHC014. Nature of the experiment: ELISA.
In experiment [9] the target is SARS-CoV. Nature of the experiment: ELISA.
The target in experiment [10] is BM-4831. In words: ELISA.
The target in experiment [11] is GX-Pangolin. Nature of the experiment: ELISA.
Experiment [12] addresses SARS-CoV-2 Spike. Nature of the experiment: SPR. On the technique in general: SPR reads the build-up and loss of mass on a sensor chip optically.
For experiment [13], the target named is SARS-CoV Spike (SARS-CoV) (UniProt P59594). Nature of the experiment: SPR.

Turning to S2X259, the half-maximal effective concentration (EC50) in experiment [1] was 0.005 µg/mL; in experiment [2] it was 2.29 µg/mL; in experiment [3], above 10 µg/mL; in experiment [4] it was 0.004 µg/mL; in experiment [5], above 10 µg/mL; in experiment [6] it was above 10 µg/mL. Moreover, the EC50 in experiment [7] is above 10 µg/mL; in experiment [8], 0.007 µg/mL; in [9], 0.016 µg/mL; in [10], 0.005 µg/mL; in experiment [11], 0.035 µg/mL. Moreover, the Kd in [12] worked out at 0.895 pM.

Turning to COVA1-16, the concentration giving a half-maximal response (EC50) in experiment [1] is above 10 µg/mL; in experiment [2] it was above 10 µg/mL; in experiment [3] it was above 10 µg/mL; in experiment [4], above 10 µg/mL; in experiment [5], 0.614 µg/mL; in experiment [6], 7.07 µg/mL. In addition, the concentration giving a half-maximal response (EC50) was above 10 µg/mL in experiment [7]; 0.049 µg/mL in experiment [8]; above 10 µg/mL in experiment [9]; above 10 µg/mL in experiment [10]; 0.043 µg/mL in experiment [11]. For the same substance, the Kd is 19500 pM in [13] and 1.29 pM in [12].

On to ADG-2, for which the half-maximal effective concentration (EC50) was 0.005 µg/mL in experiment [1]; above 10 µg/mL in [2]; above 10 µg/mL in [3]; 0.005 µg/mL in [4]; above 10 µg/mL in [5]; above 10 µg/mL in [6]. Further, the EC50 in experiment [7] is above 10 µg/mL; in experiment [8], 0.003 µg/mL; in experiment [9], 0.002 µg/mL; in experiment [10] it was 0.711 µg/mL; in experiment [11], 0.089 µg/mL. The substance also gave a dissociation constant (Kd) in experiment [12] of 0.983 pM.

On to S2H97, for which the EC50 in experiment [1] was determined as 0.54 µg/mL; in [2], 0.009 µg/mL; in experiment [3], 0.124 µg/mL; in [4], 0.006 µg/mL; in experiment [5] it was 0.008 µg/mL; in experiment [6], 0.005 µg/mL. In addition, the EC50 is 0.011 µg/mL in experiment [7]; above 10 µg/mL in experiment [8]; 0.015 µg/mL in [9]; 0.009 µg/mL in experiment [10]; 0.026 µg/mL in [11]. In experiment [12], this substance registered an equilibrium dissociation constant (Kd) of 4.53 pM.

On to S309, for which the EC50 in [1] is 0.023 µg/mL; in [2], above 10 µg/mL; in experiment [3], above 10 µg/mL; in experiment [4], above 10 µg/mL; in [5], above 10 µg/mL; in experiment [6], above 10 µg/mL. Besides, the concentration giving a half-maximal response (EC50) in experiment [7] was above 10 µg/mL; in experiment [9] it was 0.011 µg/mL; in experiment [10], 0.286 µg/mL; in experiment [11] it was 0.052 µg/mL. The substance further displayed a Kd in [12] of 1.94 pM.

With DH1047, the concentration for a half-maximal effect (EC50) in experiment [1] is 0.003 µg/mL; in experiment [2], 0.013 µg/mL; in experiment [3] it was 0.011 µg/mL; in [4], 0.003 µg/mL; in [5], 0.003 µg/mL; in experiment [6], above 10 µg/mL. The EC50 in [7] amounted to 0.01 µg/mL; in experiment [8] it was 0.003 µg/mL; in [9], 0.009 µg/mL; in experiment [10], 0.002 µg/mL; in experiment [11], 0.006 µg/mL. For the same substance, the equilibrium dissociation constant (Kd) in experiment [12] was 1.06 pM.

With REGN10985, the EC50 is 0.003 µg/mL in [1]; above 10 µg/mL in experiment [2]; above 10 µg/mL in [3]; 0.001 µg/mL in experiment [4]; above 10 µg/mL in [5]; above 10 µg/mL in [6]. The EC50 was above 10 µg/mL in [7]; 0.003 µg/mL in [8]; above 10 µg/mL in experiment [9]; 0.72 µg/mL in experiment [10]; 3.3 µg/mL in [11]. In experiment [12], this substance had a Kd of 8.72 pM.
